Measured values from the nanobody polyreactivity screen of Harvey et al. (2022).

Assay: yeast display, Sf9 membrane polyspecificity reagent, FACS + sequencing; frameworks hold sequencing errors
How it was run: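 Sorting gates, low and high (top ~1%), were placed on anti-HA fluorescence to track expression and on streptavidin fluorescence to track reagent binding. A clone's polyreactivity label is taken from the gate it came out of. The reagent was 10% biotinylated, detergent-solubilized Sf9 membrane, applied for 1 hour at 4 °C to galactose-induced yeast display cells.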

| Sequence | polyreactivity (PSR sort gate) |
| --- | --- |
| QVQLVESVGGLVQAGGSLRLSCAATGRTFAWYALGWYRQAPGKERELVAAISSGGSTYYADSVKGRFTISRDNAKNTVYLQMNSLKPEDTAVYYCAAEWHYIYAYDYWGQGTQVTVSS | low polyreactivity |
| QVQLVESVGGLVQAGGSLRLSCADSGSIFAANAIGWFRQAPGKERELVAAISRSGNTYYADSVKGRFTISRDNAKNTVYLQMNSLKPEDTAVYYCAARRYAYGRTYGYWGQGTQVTVSS | high polyreactivity |
| QVQLVESVGGLVQAGGSLRLSCGASGSIFVANAMGWYIQAPGKEREFVAAITGSGGSTYYADSVKGRFTISRDNAKNTVYLQMNSLKPEDTAVYYCTGDYTVKFGYWGQGTQVTVSS | low polyreactivity |
| QVQLVESVGGLVQAGGSLRLSCPASGSIFKYNAMGWYRQSPGKERELVAAISSGGSTNYADSVKGRFTISRDNAKNTVYLQMNSLKPEDTAVYYCAKDRRRWYYTRDYWGQGTQVTVSS | low polyreactivity |
| QVQLVESVGGLVQAGGSLRLSCPASGSTFRRYAMGWYRQAPGKERELVAAITRGGITYYADSVKGRFTISRDNAKNTFYLQMNSLKPEDTAVYYCAATTFGPYALYPRYYYWGQGTQVTVSS | high polyreactivity |
| QVQLVESVGGLVQAGGSLRLSCTATGSNFGYNAMGSYRQAPGKEREFVAAISWRGGSTYYADSVKGRLTISRDYAKNTVYLQMNSLKPEDTAVYYCAAVPQGSKRGYYYWGQGTQVTVSS | high polyreactivity |
| QVQLVESVGGLVQAGGSLRLSSAASGITFQYYDMGWYRQAPGKERELVAAIDTSGGSTYYADSVKGRFTISRDNEKNTVYLHMNSLKREDTSVYYGAACYYGYSVYGRMYYWGQGTQVTVSS | low polyreactivity |
| QVQLVESVGGLVQAGGSLRLTCAASGFTFDKYAMGWYRQAPGKERELVAAISNSGGRTYYADSVKGRFTISRDNAKNTVYLQMNSLKPEDTAVYYCAAVALTRRYDYWGQGTQVTVSS | high polyreactivity |
| QVQLVESVGGLVQAGGSLRLTCAASGFTFGPYAMGCYRQAAGKERELVAAITNRGGSTYADSVKGRFTISRDNAKNTVYLQMNSLKPEDTAVYYCATVSALEYNYWGQGTQVTVSS | low polyreactivity |
| QVQLVESVGGLVQAGGSLSLSCAASGSTFKQYAMGWYRQAPGKERELVAAISSRGGSTHYADSVKGRFTISRDNAKYTVYLQMNSLKPEDTAVYYCARDTDPQYSRSSDYDYWGQGTQVTVSS | low polyreactivity |
| QVQLVESVGGLVQAGGSLSLSCAASVFGRYAMGWYRPAPGKERELVARIYSSGGSTHYADSVKGRFTISRDNAKNTVYLQMNSLKPEDTAVYYCATGSTRWGCYYYWGQGTQVTVSS | high polyreactivity |
| QVQLVESVGGLVQAGGSRRLTSAASGRTFREYAMGWYRQAPWKERELVAAISDSGDSTYYADSVKGRFTISRDNAKNTVYLQMNSLKPEDTAVYYCAADYYDYEYDYWGQGTQVTVSS | low polyreactivity |
| QVQLVESVGGLVQAVGSLRLSCAASGRTFRHNAMGWYRQAHGKVRELVAAISSSGTNTHYADSVKGRFTISRDIAKNTVYLQMNSLQPEDTAVYYCAADRWGARRNQYHENGYWGQGTQVTVSS | high polyreactivity |
| QVQLVESVGGLVQEGGSLRLSCDASGSIFLYAMGWYRQAPGKERELVAAINRGGGSTYYADSVKGRFTISRDNAKNTVYLEMNSLKPEVTAVYYCAVVYLLPRYWWRYDYWGQGTQVTVSS | low polyreactivity |
| QVQLVESVGRLVQAGGSLRLSCAASGRIIYWNAKGWYRQAPGKERELVAGITTGGSTYYADSVKGRFTISRDNAKNTVYLQMNSLKPEDTAVYYCAARPFIRQRYGYWGKGTQVTVSS | high polyreactivity |
| QVQLVESVGVLVQAGGSLRLSCAASGSTFSSYAMGWYRPAPGKERELVAVISSRGTSTSYADSVKGRFTISRDNAKNTVYLQMNSLKQEDTAVYYCAASRFRWVQRYDYWGQGTQVTVSS | high polyreactivity |
| QVQLVESVRGLVQAGGSLRISCASSGSTFFTYPMGWYRQAPGKERELVASISIGGSTNYADSVKGRFTISRDNAKNTVYLQMNSLKPEDTAVYYCAKRYFTFGVDYDYWGQGTQVSVSS | low polyreactivity |
| QVQLVESVRGLVQAGGSLRLSCASSGSTFYGYTLGWYRQAPGKERELVAAISWSGGSTYYADSVKGRFTISRDNAKNTVYLQMNSLKPEDTAVFYCAARWGYSRRGYRGYDYWGQGTQVTVSS | high polyreactivity |
| QVQLVESVVGLVQAGGSLLISCAAYGLTFKGYAMVWYRQAPGKERELVAAITWDTGSTYYADSVKGRFSISRDNAKNTVYLQMNSLKPEDTAVYYCAAVGSTTTGVRRRGYWGHGTQVTVSS | high polyreactivity |
| QVQLVESVVGLVQAGGSLRLSCADSGSTFRSNAMGWYRQAPGKETELVAGITSGTSTNYADSVKGRFTISRDNAKNTVYLQMNSLKPEDTAVYYCNTDRIWYGPEYDFWGQGTQVTVSS | low polyreactivity |
| QVQLVESVVGLVQARGSLRLSSAATGRTFSRYAMGWYRQAPGKESELVATISWSGTSKYYADSVKGRFTISRDNAKNTVYLQMNSLKPEETAVYYCDAYYLTRFSILYYYWGLGTQVTVSS | high polyreactivity |

| Sequence | polyreactivity (PSR sort gate) |
| --- | --- |
| QVQLVESWGGLDQAGGSLRLSCAASGRILRTYAMGWYRQAPGKERELVAAITWSGGSTYYADSVKGRFTISRDNAKNTVYLQMNSLKPEDTAVYDCNALTPGYRIYDYWGQGTQVTVSS | high polyreactivity |
| QVQLVESWGGLVQAGGILRLSCASYGFIFPIYAMGWYIQAPGKESELVALIRSGGSTYYADSVKGRFTISRDNAKNTVYLQMHSRKPEDTAVYYCKAKRYGMWGAAGRVGYDYWGQGTQVTVSS | high polyreactivity |
| QVQLVESWGGLVQAGGSHRLSCAASGRTFPIYAMGWYRQAPGKERELVAAITYSGGSTYYADSVKGRFTISRDNAKNTVYLQMNSLKPEDTAVYYCAVDGTKPYWHQRYDYWGQGTQVTVSS | low polyreactivity |
| QVQLVESWGGLVQAGGSLRISCAASGNIFRYAMGWYRQAPGKERELVAAITYRGSTTYYADSVKGRFTISCDNAKNTVYLQMISLKPEDTAVYYCAARASYTRRHVGRPYDYWGQGTQVSVSS | high polyreactivity |
| QVQLVESWGGLVQAGGSLRLRCAASGRIFVSNAMGWYRQAPGKERELVAAISKRGASTYYADSVKGRFTISRDNAKNTVYLQMNSLKPEDTAVYYCNVVTPGGPNYDYWGQGTQVTVSS | high polyreactivity |
| QVQLVESWGGLVQAGGSLRLSCAASGFTLYYYAMGWYRPAPGKERELVARISLRGGRTYYADSVKGRFTISRDNAKTTVYLQMNSLKPEESAVYYCAAVGRYPITWESGESDYWGQGTQVTVSS | high polyreactivity |
| QVQLVESWGGLVQAGGSLRLSCAASGIIFQNYDMGWYRQAPGKERELVAAITGSGGSTYYADSVKGRFTISRDNAKNIVYLQMNSLKPEDTAVYYCAASSFVVSGYNKYYEYGYWGQGTQVTVSS | low polyreactivity |
| QVQLVESWGGLVQAGGSLRLSCAASGLIFVGNAMGWYRQAPGKERELVAAISSRGGRTYYADSVKGRFTISRDNAKNTVYLQMNSLKPEDTAVYYCAARVWRYPYYWGQGTQVTVSS | high polyreactivity |
| QVQLVESWGGLVQAGGSLRLSCAASGRIFYVYDMGWYRQAPGKERELVAAISWSGGSTSYADSVKGRFTISRDKAMYTVYLQMNSLKPEDTAVNYCAATSAIGWGYDYWGQGTQVNVSS | low polyreactivity |
| QVQLVESWGGLVQAGGSLRLSCAASGRIIDRKAMGWYRQAPGKERELVAAISSSGSTNYADSVKGRFTFSRDNAKNTVYLQMISLKPEDTSVYYCAARWRSVLAAGTRPVSFDYWGQGTQVTVSS | low polyreactivity |
| QVQLVESWGGLVQAGGSLRLSCAASGRIINQYAMGWYRQAPGKERELVAAITLNGGSTYYADSVKGRFTISRDNAKNTVYLQMNSLKPEDTAVYYCNNRYTHYSRKGVSYPKYDYWGQGNQVTVSS | high polyreactivity |
| QVQLVESWGGLVQAGGSLRLSCAASGRILNYYDMGWYRQAPGKERELVAGISRGGSTTYADSVKGRFTISRDNAKNTVYLQMISLKPEDTAVYYCNADRSHYWLPYGVRFDYWGQGTQVNVSS | low polyreactivity |
| QVQLVESWGGLVQAGGSLRLSCAASGRTFHSYAMGWYRQAPGKERELVAAITSSGGSTYYADSVKGRFTISRDNAKNTVYLQMNSLKPEDTAVYYCAAPYRYLSRGGEMGYWGQGTQVTVSS | high polyreactivity |
| QVQLVESWGGLVQAGGSLRLSCAASGRTFRLYAMGWYRQAPGKERELVATNTSTGSTNYADSVKGRFTISRDNAKNTVFLQMNSLKPDDTAVYYCNAAWYNPKSWTQYPPFDYWGQGTQVTVSS | high polyreactivity |
| QVQLVESWGGLVQAGGSLRLSCAASGRTFRRNAMGWYRQSPGKERELVATISSSGGRTYYADSVKGRFTISRDNAKKTVYLQMNSLKPEDTAVYYCIKALRSYPLFYFWVQGTQVTVSS | high polyreactivity |
| QVQLVESWGGLVQAGGSLRLSCAASGRTLGRNAMGWYRQAPGKEREWVASISSGGSTNYADSVKGRFTISRDNAKNTVYLQMNSLKPEDTAVYYCNKRYRSLYSSGYDYWGQGTQVTVSS | high polyreactivity |
| QVQLVESWGGLVQAGGSLRLSCAASGRTSGNYAMGWYRQAPGKERELVAAIRYSGSSTFYADSVKGRFTISRDNAKNTVYLQMNSLKPEDTAVYYCARDIRRKGFRYDYWGQGTQVNVSS | high polyreactivity |
| QVQLVESWGGLVQAGGSLRLSCAASGSIFDNYAMGWYRQAPGKERELVAAISWSGGRTYYADSVKGRFTISRDNAKNTVYLQMNSLKPEDTAVYYCAAYVYTSFLYYYWGQGTQVTVSS | high polyreactivity |
| QVQLVESWGGLVQAGGSLRLSCAASGSIFPRNAMGWYRQAPGKERELVATISSGGSTYYADSVKGRFTISRDNAKNTVYLQMNSLKPEDTAVYYCAAEYVVRAIDVDYDYWGQGTQVTVSS | high polyreactivity |
| QVQLVESWGGLVQAGGSLRLSCAASGSIFSPYAIGWYRQAPGKERELVAAISFRASTTYYADSVKGRFTITRDNAKNTVYLQMNSLKPEDTAVYYCAASPLYSWFWGLYDYWGQGTQVTVSS | low polyreactivity |
